The source of these data is patent publication US20040018971A1 (published 2004).

B1: Her2/neu.921.F1 (peptide)
peptide: FPYDGIPA
notes: 8-mer analog of the HER2/neu peptide starting at position 921
B2: Her2/neu.921.F1I8 (peptide)
peptide: FPYDGIPI
notes: as for B1
B3: HER2/neu peptide, position 402, 10 amino acids (peptide)
peptide: TLEEITGYLY
notes: Synthetic peptide; also called Her2/neu.402
B4: HER2/neu peptide, position printed as 515 (read as 545), 10 amino acids (peptide)
peptide: RVLQGLPREY
notes: The row follows '545; 8 then 545; 10 at the same point
B5: HER2/neu peptide, position 166, 10 amino acids (peptide)
peptide: TILWKDIFHK
notes: Synthetic peptide; also called Her2/neu.166

One assay addresses HLA-A*1101 (human). Kind of assay: competition with 125I-labelled probe peptide for purified HLA-A*1101, gel filtration; standard peptide 940.06 [..] (6.0 nM). For orientation: Size exclusion chromatography separates by hydrodynamic size, large species first.
Consider LALTLIDTNR [HER2/neu peptide, position 179, 10 amino acids], for which the relative binding ratio is 0.0003 ratio (IC50 of standard peptide / IC50 of test peptide).

Take HTVPWDQLFR (also called Her2/neu.478) [HER2/neu peptide, position 478, 10 amino acids]: the relative binding ratio was 0.072 ratio (IC50 of standard peptide / IC50 of test peptide).

LIQRNPQLCY [HER2/neu peptide, position 154, 10 amino acids]: the relative binding ratio was 0.0002 ratio (IC50 of standard peptide / IC50 of test peptide).

Take KIRKYTMR [HER2/neu peptide, position 681, 8 amino acids]: the relative binding ratio was 0.0004 ratio (IC50 of standard peptide / IC50 of test peptide).

Turning to HSCVDLDDK [HER2/neu peptide, position 632, 9 amino acids], the relative binding ratio is 0.0007 ratio (IC50 of standard peptide / IC50 of test peptide).

HLDMLRHLY (also called Her2/neu.42) [HER2/neu peptide, position 42, 9 amino acids]: the relative binding ratio was 0.0002 ratio (IC50 of standard peptide / IC50 of test peptide).

Consider LSPGKNGVVK [HER2/neu peptide, position 1173, 10 amino acids], for which the relative binding ratio is 0.0003 ratio (IC50 of standard peptide / IC50 of test peptide).

Consider ILKETELRK [HER2/neu peptide, position 714, 9 amino acids], for which the relative binding ratio is 0.0023 ratio (IC50 of standard peptide / IC50 of test peptide).

As for LMTFGAKPY [HER2/neu peptide, position 915, 9 amino acids], the relative binding ratio was 0.0003 ratio (IC50 of standard peptide / IC50 of test peptide).

Turning to LACHQLCAR [HER2/neu peptide, position 509, 9 amino acids], the relative binding ratio is 0.0003 ratio (IC50 of standard peptide / IC50 of test peptide).

For ILWKDIFHK (also called Her2/neu.167) [HER2/neu peptide, position 167, 9 amino acids], the relative binding ratio was 0.31 ratio (IC50 of standard peptide / IC50 of test peptide).

Regarding ILIKRRQQK [HER2/neu peptide, position 673, 9 amino acids], the relative binding ratio is 0.0097 ratio (IC50 of standard peptide / IC50 of test peptide).

For LGSGAFGTVY [HER2/neu peptide, position 726, 10 amino acids], the relative binding ratio was 0.0003 ratio (IC50 of standard peptide / IC50 of test peptide).

With LCYQDTILWK [HER2/neu peptide, position 161, 10 amino acids], the relative binding ratio was 0.0063 ratio (IC50 of standard peptide / IC50 of test peptide).

Regarding LIKRRQQKIR [HER2/neu peptide, position 674, 10 amino acids], the relative binding ratio is 0.0001 ratio (IC50 of standard peptide / IC50 of test peptide).

For KVLRENTSPK [HER2/neu peptide, position 753, 10 amino acids], the relative binding ratio is 0.22 ratio (IC50 of standard peptide / IC50 of test peptide).

With LLNWCMQIAK [HER2/neu peptide, position 822, 10 amino acids], the relative binding ratio was 0.14 ratio (IC50 of standard peptide / IC50 of test peptide).

Regarding KIPVAIKVLR [HER2/neu peptide, position 747, 10 amino acids], the relative binding ratio is 0.0099 ratio (IC50 of standard peptide / IC50 of test peptide).

For a further assay, the target named is T1, HLA-A*0301 (human).
T1 construct: also called HLA-A3
Kind of assay: inhibition of 125I-labelled probe peptide binding to purified HLA-A*0301, gel filtration; ratio to standard peptide 941.12 ([..], 11 nM).
On to GAMPNQAQMR [HER2/neu peptide, position 704, 10 amino acids], for which the “relative binding ratio (IC50 of standard peptide / IC50 of test peptide)” value was -0.0002.

As to GAGGMVHHR [HER2/neu peptide, position 1038, 9 amino acids], the “relative binding ratio (IC50 of standard peptide / IC50 of test peptide)” value stood at 0.0002.

Turning to GMSYLEDVR [HER2/neu peptide, position 832, 9 amino acids], the “relative binding ratio (IC50 of standard peptide / IC50 of test peptide)” value was -0.0002.

GGAVENPEY [HER2/neu peptide, position 1188, 9 amino acids]: the “relative binding ratio (IC50 of standard peptide / IC50 of test peptide)” value turned out to be 0.0003.

Regarding GVGSPYVSR [HER2/neu peptide, position 776, 9 amino acids], the “relative binding ratio (IC50 of standard peptide / IC50 of test peptide)” value was determined as 0.001.

For the molecule GLPREYVNAR [HER2/neu peptide, position 549, 10 amino acids], the “relative binding ratio (IC50 of standard peptide / IC50 of test peptide)” value amounted to 0.0002.

Take GSGAFGTVY [HER2/neu peptide, position 727, 9 amino acids]: the “relative binding ratio (IC50 of standard peptide / IC50 of test peptide)” value is 0.0028.

For the molecule GASCVTACPY [HER2/neu peptide, position 292, 10 amino acids], the “relative binding ratio (IC50 of standard peptide / IC50 of test peptide)” value stood at 0.0003.

With GVVFGILIK [HER2/neu peptide, position 668, 9 amino acids], the “relative binding ratio (IC50 of standard peptide / IC50 of test peptide)” value is 0.0047.

On to GILIKRRQQK [HER2/neu peptide, position 672, 10 amino acids], for which the “relative binding ratio (IC50 of standard peptide / IC50 of test peptide)” value was found to be 0.015.

Take FSPAFDNLY [HER2/neu peptide, position 1213, 9 amino acids]: the “relative binding ratio (IC50 of standard peptide / IC50 of test peptide)” value stood at 0.0002.

Take HADGGKVPIK [HER2/neu peptide, position 878, 10 amino acids]: the “relative binding ratio (IC50 of standard peptide / IC50 of test peptide)” value was 0.0003.

Regarding GMEHLREVR [HER2/neu peptide, position 346, 9 amino acids], the “relative binding ratio (IC50 of standard peptide / IC50 of test peptide)” value is -0.0002.

GSGAFGTVYK [HER2/neu peptide, position 727, 10 amino acids]: the “relative binding ratio (IC50 of standard peptide / IC50 of test peptide)” value worked out at 0.066.

Regarding GLACHQLCAR [HER2/neu peptide, position 508, 10 amino acids], the “relative binding ratio (IC50 of standard peptide / IC50 of test peptide)” value came out at 0.011.

In the case of GTQRCEKCSK [HER2/neu peptide, position 327, 10 amino acids], the “relative binding ratio (IC50 of standard peptide / IC50 of test peptide)” value turned out to be 0.021.

With FSRMARDPQR [HER2/neu peptide, position 976, 10 amino acids], the “relative binding ratio (IC50 of standard peptide / IC50 of test peptide)” value is -0.0002.

GLGISWLGLR [HER2/neu peptide, position 447, 10 amino acids]: the “relative binding ratio (IC50 of standard peptide / IC50 of test peptide)” value turned out to be 0.0037.

For another assay, the target named is HLA-B*5401 (human). Kind of assay: competition vs 125I-labeled standard peptide, purified HLA.
The IC50 is the concentration that inhibits the measured activity by half. In the case of B1, the IC50 is 1 nM.

As for B2, the IC50 was found to be 56 nM.

The next assay addresses HLA-B*5101 (human). The description is as above.
In turn, B1 showed a half-inhibitory concentration (IC50) of 157 nM.

In turn, B2 showed an IC50 of 10 nM.

The next assay addresses HLA-B*5301 (human). Described as above.
Turning to B1, the IC50 was determined as 6200 nM.

B2: the IC50 was 344 nM.

The next assay deals with HLA-B*3501 (human). The assay is described as above.
The molecule B1 registered an IC50 of 206 nM.

For B2, the IC50 came to 379 nM.

The target of a further assay is HLA-B*0702 (human). Described as above.
As for B1, the IC50 came to 423 nM.

B2 had an IC50 of 177 nM.

Another assay has as its target HLA-A*1101 (human). Briefly: competition with 125I-labelled probe peptide on purified HLA-A*1101, relative to standard peptide 940.06.
Take VLQGLPREY (Synthetic peptide) [HER2/neu peptide, position 546, 9 amino acids]: the relative binding ratio is 0.0002 ratio (IC50 of standard peptide / IC50 of test peptide).

As for B3, the relative binding ratio is 0.0001 ratio (IC50 of standard peptide / IC50 of test peptide).

For B4, the relative binding ratio is 0.005 ratio (IC50 of standard peptide / IC50 of test peptide).

On to VLVKSPNHVK (Synthetic peptide) [HER2/neu peptide, position 851, 10 amino acids], for which the relative binding ratio was 0.0072 ratio (IC50 of standard peptide / IC50 of test peptide).

For RILKETELRK (Synthetic peptide) [HER2/neu peptide, position 713, 10 amino acids], the relative binding ratio is 0.11 ratio (IC50 of standard peptide / IC50 of test peptide).

Take SMPNPEGRY (Synthetic peptide) [HER2/neu peptide, position 281, 9 amino acids]: the relative binding ratio is 0.0003 ratio (IC50 of standard peptide / IC50 of test peptide).

As for RLLDIDETEY (Synthetic peptide) [HER2/neu peptide, position 868, 10 amino acids], the relative binding ratio is 0.0001 ratio (IC50 of standard peptide / IC50 of test peptide).

Take SSEDCQSLTR (Synthetic peptide) [HER2/neu peptide, position 208, 10 amino acids]: the relative binding ratio was 0.002 ratio (IC50 of standard peptide / IC50 of test peptide).

As for VLIAHNQVR (Synthetic peptide) [HER2/neu peptide, position 84, 9 amino acids], the relative binding ratio was 0.0007 ratio (IC50 of standard peptide / IC50 of test peptide).

Take TVPWDQLFR (Synthetic peptide) [HER2/neu peptide, position 479, 9 amino acids]: the relative binding ratio is 0.0072 ratio (IC50 of standard peptide / IC50 of test peptide).

Take RILKETELR (Synthetic peptide) [HER2/neu peptide, position 713, 9 amino acids]: the relative binding ratio was 0.0038 ratio (IC50 of standard peptide / IC50 of test peptide).

For the molecule RLVHRDLAAR (Synthetic peptide) [HER2/neu peptide, position 840, 10 amino acids], the relative binding ratio was 0.0001 ratio (IC50 of standard peptide / IC50 of test peptide).

For the molecule SVFQNLQVIR (Synthetic peptide) [HER2/neu peptide, position 423, 10 amino acids], the relative binding ratio was 0.075 ratio (IC50 of standard peptide / IC50 of test peptide).

As for VARCPSGVK (Synthetic peptide) [HER2/neu peptide, position 597, 9 amino acids], the relative binding ratio was -0.0002 ratio (IC50 of standard peptide / IC50 of test peptide).

Take RGTQLFEDNY (Synthetic peptide) [HER2/neu peptide, position 103, 10 amino acids]: the relative binding ratio is 0.0015 ratio (IC50 of standard peptide / IC50 of test peptide).

With TLIDTNRSR (Synthetic peptide) [HER2/neu peptide, position 182, 9 amino acids], the relative binding ratio was 0.0005 ratio (IC50 of standard peptide / IC50 of test peptide).

TIDVYMIMVK (Synthetic peptide) [HER2/neu peptide, position 948, 10 amino acids]: the relative binding ratio is 0.12 ratio (IC50 of standard peptide / IC50 of test peptide).

As to B5, the relative binding ratio is 3.6 ratio (IC50 of standard peptide / IC50 of test peptide).
